B1: FUNDC2 (parent)
chain: YIKVDWQRVEKDMKKAKEQLKIRK

Variants of: B1
Test: protein stability index of a GFP-peptide fusion (GPS, HEK-293T) (PSI 1-6); higher = more stable
Conditions: c terminus: a fixed tail appended
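Also: lentivirally expressed fusions sorted by FACS into six bins by GFP to DsRed ratio, PSI derived from sequencing read proportions per bin multiplied by bin number.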

Protein stability index, by site and new letter:
Q19: R 1.33, M 2.57, S 2.04, K 1.32, D 1.98, E 2.68, H 1.33, N 1.81, T 2.8, L 2.43, V 1.19, Y 1.8, I 1.49, P 1.82, A 1.86, C 1.43, W 1.79, F 1.56
I22: K 2.25, Q 2.51, E 2.65, D 1.92, F 2.12, A 1.21, Y 1.88, T 1.57, P 1.49, S 2.01, L 2.12, G 1.83, W 2.11, C 1.47, H 1.88, N 1.98, M 1.97, R 1.29
K15: P 1.72, S 1.65, A 1.78, Q 2.5, E 1.55, R 1.92, W 1.94, G 1.89, Y 2.14, F 1.42, V 2.39, M 1.79, I 2.01, C 2.35, D 2.05, L 2.19, N 1.88, H 1.44, T 2.11
K17: L 2.21, T 1.62, A 1.64, D 1.67, S 2.62, I 1.71, P 1.79, H 1.94, Q 1.65, E 2.15, C 2.19, N 1.95, M 2.83, F 2.62, G 2.69, Y 2.37, W 1.66, V 1.64, R 2.27
K14: E 1.42, L 2.19, F 1.51, M 1.9, H 1.14, D 1.65, A 1.6, S 2.03, W 2.1, N 1.61, Y 4.38, T 1.92, C 1.83, R 2.12, I 1.67, V 1.92, P 1.86, Q 1.72
K21: D 1.86, N 1.91, G 2.13, T 1.87, S 2.22, I 1.68, W 2.06, E 2.28, H 1.74, P 1.84, A 1.87, V 2.19, M 1.96, Q 1.62, L 1.71, Y 2.5, F 1.69, R 2, C 2.06
A16: D 1.78, P 2.13, G 1.89, I 2.06, M 1.85, C 2.08, K 1.83, T 1.89, E 1.43, F 2.16, Q 3, S 1.75, L 1.95, V 1.38, H 2.4, R 2.08, Y 1.98, W 1.94
L20: Q 1.42, D 1.77, P 1.95, I 2.42, S 1.52, V 1.77, N 1.49, R 1.6, K 1.59, Y 1.91, C 2, T 2.62, H 1.71, G 1.89, E 2.4, M 1.32, A 2.3, W 2.65, F 4.29
M13: W 2.29, V 1.95, Y 2.14
E18: L 2.12, I 2.41, F 1.65, N 1.72, Q 1.99, W 1.16, K 1.84, Y 1.84, A 1.97, D 1.44, R 1.57, S 2.46, V 1.69, H 2.41, M 1.59, P 2.48
